Measurements from patent publication US20080195324A1.

Target: 10-subunit yeast RNA polymerase II (yeast) (UniProt P16370)
Assay: 2.8 Å cocrystal structure; change in solvent-exposed surface of pol II residues, AREAIMOL, probe radius 1.4 Å

Work on α-amanitin (peptide) yielded a Δsurface area (Total) of -541 Å^2.
